Assay results from patent US20240301061A1 (BEIGENE SWITZERLAND, published 2024).
Where a chain is given by its changes, count along the chain named. One block for each binder: values may come before it.

How the values were obtained:
human claudin 6 (CLDN6) [1] = biological target: T1, human claudin 6 (CLDN6) (human, UniProt P56747 1-220); assay: flow cytometry, PA-1 cells
T1 construct: also called human CLDN6; hCLDN6
T1 sequence: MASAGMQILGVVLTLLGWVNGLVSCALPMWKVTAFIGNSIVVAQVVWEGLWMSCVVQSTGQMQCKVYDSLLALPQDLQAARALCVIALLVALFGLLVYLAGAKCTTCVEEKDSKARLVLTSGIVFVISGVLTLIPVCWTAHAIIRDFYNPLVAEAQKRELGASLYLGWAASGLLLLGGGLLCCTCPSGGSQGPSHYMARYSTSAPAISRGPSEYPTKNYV
Method: (§1) For affinity determination, CLDN6 over-expressing HEK293T cells and cancer cell line PA-1 which express high levels of human CLDN6 were used to evaluate the binding activity of BG87P related engineering variants. Live cells were seeded in 96-well plate, and were incubated with a series of dilutions of chBG87P and engineered variants thereof. Goat anti-human IgG was used as second antibody to detect antibody binding to the cell surface. EC50 values for dose-dependent binding to CLDN6 expressing cell lines were determined by fitting the dose-response data to the four-parameter logistic model with GraphPad Prism. Cell binding activity of 1st round of BG87P humanization variants against HEK293T/human CLDN6 were compared to chBG87P and shown in FIG. 1A.

human claudin 6 (CLDN6) [2] = biological target: T1, human claudin 6 (CLDN6); assay: flow cytometry, PA-1 cells; ratio to chBG87P
Method: as §1

human claudin 6 (CLDN6) [3] = biological target: T1, human claudin 6 (CLDN6); assay: flow cytometry, HEK293-hCLDN6 cells; ratio to chBG87P
human claudin 6 (CLDN6) [4] = biological target: T1, human claudin 6 (CLDN6); assay: flow cytometry, HEK293T-hCLDN6 cells; ratio to chBG87P
cyno CLDN6 = biological target: T2, cyno CLDN6 (cyno); assay: flow cytometry, HEK293T-cyno-CLDN6 cells; ratio to chBG87P
T2 construct: whole, on cells; also called cynomolgus CLDN6

human claudin 6 (CLDN6) [5] = biological target: T1, human claudin 6 (CLDN6); assay: flow cytometry, HEK293T-human CLDN6 cells; ratio to chBG87P
Method: as §1

Top MFI Mean (human claudin 6 (CLDN6) [1]): 76500 MFI | Emax ratio to BG87P (human claudin 6 (CLDN6) [2]): 0.61 | FACS-Ec50 ratio to BG87P (human claudin 6 (CLDN6) [3]): 0.91 | FACS Emax ratio to BG87P (human claudin 6 (CLDN6) [4]): 0.66 | FACS Emax ratio to BG87P (cyno CLDN6): 0.8 | Emax ratio to BG87P (human claudin 6 (CLDN6) [5]): 0.78
B1: BG87P-21 (antibody, V domains shown)
VH: QVQLVQSGAEVKKPGASVKVSCKASGYSFTDYHINWVRQAPGQRLEWMGWIYPGSGYTKYNEKFKGRVTITRDTSASTAYMELSSLRSEDTAVYYCARSGIYHYVSSYYFDHWGKGTTVTVSS
VL: DIQMTQSPSTLSASVGDRVTITCKASQDVGTAVAWYQQKPGKAPKLLIYWASTRHTGVPSRFSGSGSGTEFTLTISSLQPDDFATYYCQQYSSYTFGGGTKVEIK
notes: 2nd round humanized variant

Top MFI Mean (human claudin 6 (CLDN6) [1]): 67800 MFI | Emax ratio to BG87P (human claudin 6 (CLDN6) [2]): 0.54 | Emax ratio to BG87P (human claudin 6 (CLDN6) [5]): 0.71
B2: BG87P-22 (antibody, V domains shown)
VH: B1 VH with Y95F
VL: B1 VL

Emax ratio to BG87P (human claudin 6 (CLDN6) [2]): 1 | FACS-Ec50 ratio to BG87P (human claudin 6 (CLDN6) [3]): 1 | FACS Emax ratio to BG87P (human claudin 6 (CLDN6) [4]): 1 | FACS Emax ratio to BG87P (cyno CLDN6): 1 | Emax ratio to BG87P (human claudin 6 (CLDN6) [5]): 1
B3: anti-CLDN6 chimeric BG87P (antibody, V domains shown)
VH: QIQLQQSGPELVKPGASVKISCKASGYSFTDYHINWVKQRPGQGLEWIGWIYPGSGYTKYNEKFKVKATLTVDTSSSTAYMHLTSLTSEDSAVYFCARSGIYHYVSSYYFDHWGQGTTLTVSS
VL: DIVMTQSHTFMSTSVGDRVSITCKASQDVGTAVAWYQQKPGQSPKLLIYWASTRHTGVPDRFTGSGSGTDFTLTISNVQSEDLADYFCQQYSSYTFGGGTKLEIK
notes: expressed in HEK293T; also called chBG87P; ChBG87P
